The text below walks through data of paper PMC11751051 (Frontiers in Molecular Biosciences, 2025).

For one experiment, the target named is T1, GFP-OhyA (Staphylococcus aureus, UniProt Q2G1P3, M1A).
T1 construct: gene SAOUHSC_00061
Kind of experiment: biochemical.

Experiment [1] addresses GFP-OhyA (green fluorescent protein-oleate hydratase chimeric protein) (Staphylococcus aureus). Briefly: SEC-MALS; Superose 6 Increase 10/300 GL; 20 mM Tris, 200 mM NaCl, pH 7.6; 100 uL of GFP-OhyA (2 mg/mL) injected at 0.5 mL/min, 25 °C.

Turning to `CCCCCCCC/C=C\CCCCCCCC(=O)OC[C@H](COP(=O)(O)OCC(O)CO)OC(=O)CCCCCCC/C=C\CCCCCCCC` (stereo partly drawn) [DOPG], the dissociation constant (Kd) (commonly the concentration at which binding is half-saturated) at GFP-OhyA amounted to 79.9 nM. Regarding “GFP-OhyA (green fluorescent protein-oleate hydratase chimeric protein) (enzyme)”, in experiment [1], the percent dimer was 80.6% and the stoichiometry N (commonly a count of units in the complex or per binding partner) amounted to 2.
